According to patent publication US20220064286A1 (Genentech, published 2022):

T1: hTIGIT mutant E60A (human, UniProt Q495A1)
T1 sequence (TIGIT, looked up): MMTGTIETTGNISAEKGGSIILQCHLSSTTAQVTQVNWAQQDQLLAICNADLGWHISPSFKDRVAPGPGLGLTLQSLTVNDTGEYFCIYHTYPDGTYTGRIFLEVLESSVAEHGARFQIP

T2: hTIGIT mutant H111A (human, UniProt Q495A1)
T2 sequence (TIGIT, looked up): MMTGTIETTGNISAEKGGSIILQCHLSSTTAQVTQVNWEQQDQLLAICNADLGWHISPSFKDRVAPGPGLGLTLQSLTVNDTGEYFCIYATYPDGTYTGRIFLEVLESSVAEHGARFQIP

T3: hTIGIT mutant N70A (human, UniProt Q495A1)
T3 sequence (TIGIT, looked up): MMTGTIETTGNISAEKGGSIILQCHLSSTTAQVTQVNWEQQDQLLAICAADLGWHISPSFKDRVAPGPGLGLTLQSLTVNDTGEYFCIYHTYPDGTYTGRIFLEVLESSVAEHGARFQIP

T4: hTIGIT mutant L65A (human, UniProt Q495A1)
T4 sequence (TIGIT, looked up): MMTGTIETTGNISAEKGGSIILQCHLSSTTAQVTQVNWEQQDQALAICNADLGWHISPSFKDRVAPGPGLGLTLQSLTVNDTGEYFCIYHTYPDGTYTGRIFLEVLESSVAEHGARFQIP

T5: hTIGIT mutant Q56A (human, UniProt Q495A1)
T5 sequence (TIGIT, looked up): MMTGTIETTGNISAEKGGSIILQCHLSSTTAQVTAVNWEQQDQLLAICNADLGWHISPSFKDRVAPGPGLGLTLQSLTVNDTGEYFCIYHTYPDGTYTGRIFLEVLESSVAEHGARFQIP

T6: hTIGIT mutant H76A (human, UniProt Q495A1)
T6 sequence (TIGIT, looked up): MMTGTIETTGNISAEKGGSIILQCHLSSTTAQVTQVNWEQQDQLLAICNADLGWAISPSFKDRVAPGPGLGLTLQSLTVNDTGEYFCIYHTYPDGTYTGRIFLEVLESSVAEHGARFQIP

T7: hTIGIT mutant T117A (human, UniProt Q495A1)
T7 sequence (TIGIT, looked up): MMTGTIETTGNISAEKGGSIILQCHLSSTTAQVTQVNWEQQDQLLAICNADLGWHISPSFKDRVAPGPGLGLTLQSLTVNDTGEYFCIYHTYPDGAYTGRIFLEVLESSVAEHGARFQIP

T8: hTIGIT mutant I68A (human, UniProt Q495A1)
T8 sequence (TIGIT, looked up): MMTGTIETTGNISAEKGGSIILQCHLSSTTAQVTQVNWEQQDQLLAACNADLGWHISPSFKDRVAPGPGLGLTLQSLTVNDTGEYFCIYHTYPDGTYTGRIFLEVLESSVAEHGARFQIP

T9: human TIGIT protein (human, UniProt Q495A1 22-141, limits assumed)
T9 construct: Recombinant protein (Genentech) used in ELISA screening and as SPR analyte; also called TIGIT antigen
T9 sequence: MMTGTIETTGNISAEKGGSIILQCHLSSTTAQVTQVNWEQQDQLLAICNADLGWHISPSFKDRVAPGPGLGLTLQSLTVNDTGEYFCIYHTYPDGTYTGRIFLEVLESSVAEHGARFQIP


How the values were obtained:
hTIGIT mutant E60A [1] = molecular target: T1, hTIGIT mutant E60A; assay: SPR (BIACORE), N=2
hTIGIT mutant H111A [2] = molecular target: T2, hTIGIT mutant H111A; assay: SPR (BIACORE), N=2
hTIGIT mutant N70A [3] = molecular target: T3, hTIGIT mutant N70A; assay: SPR (BIACORE), N=2
hTIGIT mutant L65A [4] = molecular target: T4, hTIGIT mutant L65A; assay: SPR (BIACORE), N=2
hTIGIT mutant Q56A [5] = molecular target: T5, hTIGIT mutant Q56A; assay: SPR (BIACORE), N=2
hTIGIT mutant H76A [6] = molecular target: T6, hTIGIT mutant H76A; assay: SPR (BIACORE), N=2
hTIGIT mutant T117A [7] = molecular target: T7, hTIGIT mutant T117A; assay: SPR (BIACORE), N=2
hTIGIT mutant I68A [8] = molecular target: T8, hTIGIT mutant I68A; assay: SPR (BIACORE), N=2
hTIGIT mutant E60A [9] = molecular target: T1, hTIGIT mutant E60A; assay: SPR (BIACORE) KD normalized to WT, N=2
hTIGIT mutant H111A [10] = molecular target: T2, hTIGIT mutant H111A; assay: SPR (BIACORE) KD normalized to WT, N=2
hTIGIT mutant N70A [11] = molecular target: T3, hTIGIT mutant N70A; assay: SPR (BIACORE) KD normalized to WT, N=2
hTIGIT mutant L65A [12] = molecular target: T4, hTIGIT mutant L65A; assay: SPR (BIACORE) KD normalized to WT, N=2
hTIGIT mutant Q56A [13] = molecular target: T5, hTIGIT mutant Q56A; assay: SPR (BIACORE) KD normalized to WT, N=2
hTIGIT mutant H76A [14] = molecular target: T6, hTIGIT mutant H76A; assay: SPR (BIACORE) KD normalized to WT, N=2
hTIGIT mutant T117A [15] = molecular target: T7, hTIGIT mutant T117A; assay: SPR (BIACORE) KD normalized to WT, N=2
hTIGIT mutant I68A [16] = molecular target: T8, hTIGIT mutant I68A; assay: SPR (BIACORE) KD normalized to WT, N=2
human TIGIT protein = molecular target: T9, human TIGIT protein; assay: SPR, monovalent affinity
[17] = molecular target: cynomolgus monkey (cyno) TIGIT protein (cynomolgus monkey, UniProt A0A7N9I9V4 89-209); assay: SPR, monovalent affinity
Sequence of cynomolgus monkey (cyno) TIGIT protein (A0A7N9I9V4 entry or part of it): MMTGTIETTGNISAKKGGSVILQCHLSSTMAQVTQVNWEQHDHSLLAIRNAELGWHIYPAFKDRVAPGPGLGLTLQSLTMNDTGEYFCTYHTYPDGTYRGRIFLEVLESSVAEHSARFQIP

Kd (hTIGIT mutant E60A [1]) | Kd (hTIGIT mutant H111A [2]) | Kd (hTIGIT mutant N70A [3]) | Kd (hTIGIT mutant L65A [4]) | Kd (hTIGIT mutant Q56A [5]) | Kd (hTIGIT mutant H76A [6]) | Kd (hTIGIT mutant T117A [7]) | Kd (hTIGIT mutant I68A [8]) | Binding affinity drop vs. WT (hTIGIT mutant E60A [9]) | Binding affinity drop vs. WT (hTIGIT mutant H111A [10]) | Binding affinity drop vs. WT (hTIGIT mutant N70A [11]) | Binding affinity drop vs. WT (hTIGIT mutant L65A [12]) | Binding affinity drop vs. WT (hTIGIT mutant Q56A [13]) | Binding affinity drop vs. WT (hTIGIT mutant H76A [14]) | Binding affinity drop vs. WT (hTIGIT mutant T117A [15]) | Binding affinity drop vs. WT (hTIGIT mutant I68A [16]) | Kd (human TIGIT protein) | Kd [17] | Binder
40.3 nM | 33.3 nM | 24.3 nM | 10.6 nM | 29.5 nM | > 500 nM | 36.4 nM | 17.1 nM | 0.9 fold | 0.7 fold | 0.5 fold | 0.2 fold | 0.7 fold | > 11 fold | 0.8 fold | 0.4 fold |  |  | 10A7 (antibody, V domains shown) VH: EVQLVESGGGLTQPGKSLKLSCEASGFTFSSFTMHWVRQSPGKGLEWVAFIRSGSGIVFYADAVRGRFTISRDNAKNLLFLQMNDLKSEDTAMYYCARRPLGHNTFDSWGQGTLVTVSS VL: DIVMTQSPSSLAVSPGEKVTMTCKSSQSLYYSGVKENLLAWYQQKPGQSPKLLIYYASIRFTGVPDRFTGSGSGTDYTLTITSVQAEDMGQYFCQQGINNPLTFGDGTKLEIKR
6.1 nM | 1.9 nM | 1.7 nM | 8.8 nM | 2.7 nM | 0.7 nM | 0.7 nM | 10.5 nM | 12.2 fold | 3.8 fold | 3.4 fold | 17.6 fold | 5.4 fold | 1.4 fold | 1.4 fold | 21 fold | 0.61 nM | 3.4 nM | 4.1D3 (antibody, V domains shown, OMT rat-derived human antibody; also called 4.1D3.Q1) VH: QVQLQQSGPGLVKPSQTLSLTCAISGDSVSSNSAAWNWIRQSPSRGLEWLGKTYYRFKWYSDYAVSVKGRITINPDTSKNQFSLQLNSVTPEDTAVFYCTRESTTYDLLAGPFDYWGQGTLVTVSS VL: not shown
 |  |  |  |  |  |  |  |  |  |  |  |  |  |  |  | 0.57 nM | 3.2 nM | 4.1D3.Q1E (antibody, V domains shown) VH: EVQLQQSGPGLVKPSQTLSLTCAISGDSVSSNSAAWNWIRQSPSRGLEWLGKTYYRFKWYSDYAVSVKGRITINPDTSKNQFSLQLNSVTPEDTAVFYCTRESTTYDLLAGPFDYWGQGTLVTVSS VL: not shown
4.8 nM | 151 nM | 10.7 nM | 3.9 nM | 23.7 nM | 4.2 nM | 3.3 nM | 4.9 nM | 2.7 fold | 84 fold | 5.9 fold | 2.2 fold | 13.2 fold | 2.3 fold | 1.8 fold | 2.7 fold | 2.97 nM | 2.02 nM | 7.4A3.C96S.Q1E (antibody, V domains shown, also called 7.4A3.Q1E.C96S) VH: EVQLVQSGSDLKKPGASVRVSCKASGYTFTSYPMNWVRQAPGHGLEWMGWINTNTGNPTYVQGFTGRFVFSLDTSVNTAYLQISSLKAEDTAVYFCARTGGHTYDSYAFDVWGQGTMVTVSS VL: DIQLTQSPTFLSASVGDRVTITCRASQVISSSLAWYQQNPGKAPKLLIYAASTLQSGVPSRFSGSGSGTEFTLTISSLQPEDFVTYYCQHLHGYPSNFGQGTKVEIK
